The target of experiment [1] is T1, recombinant GST-SNAP25FL (UniProt P60880 1-206).
T1 construct: range 1-206; also called SNAP25 206; full-length SNAP25; not shown: GST tag
The experiment is described as follows: BLI (Octet Red96), IgG on AMC biosensor, GST-SNAP25FL as analyte; Kdis is the instrument's lowest limit, tentatively given.

Experiment [2] concerns the target T1, recombinant GST-SNAP25FL. The experiment can be described thus: BLI (Octet Red96), IgG on AMC biosensor, GST-SNAP25FL as analyte; from tentative Kdis. A general note: BLI is a label-free optical method that tracks binding on a fibre tip over time.
For experiment [3], the target named is T1, recombinant GST-SNAP25FL. The experiment can be described thus: BLI (Octet Red96), IgG on AMC biosensor, GST-SNAP25FL as analyte.
For experiment [4], the target named is T2, recombinant GST-SNAP25197 (UniProt P60880 1-197).
T2 construct: range 1-197; also called BoNT/A-cleaved form of SNAP25
The experiment can be described thus: direct ELISA; ratio of A450 with SNAP25197 to A450 with SNAP25FL. (An ELISA detects its analyte on a solid surface through an enzyme-linked reagent.)

Experiment [5] concerns the target T3, endogenous SNAP25197 in total cell lysate of BoNT/A-treated N2-42F cells (mouse, UniProt P60879 1-197).
T3 construct: range 1-197; also called SNAP25197 captured
The experiment can be described thus: sandwich ELISA, plate coated with B4 IgG, lysate of BoNT/A-treated N2-42F cells.

Experiment [6] concerns the target T2, recombinant GST-SNAP25197.
The target of experiment [7] is T2, recombinant GST-SNAP25197. The experiment can be described thus: BLI (Octet Red96), IgG on AMC biosensor, GST-SNAP25197 as analyte.
Experiment [8] concerns the target T1, recombinant GST-SNAP25FL. The experiment is described as follows: BLI (Octet Red96), IgG on AMC biosensor, GST-SNAP25FL as analyte. The source holds these as a separate data set.
The target of experiment [9] is T2, recombinant GST-SNAP25197. The experiment can be described thus: BLI (Octet Red96), IgG on AMC biosensor, GST-SNAP25197 as analyte. This is another data set of the same source.
The target of experiment [10] is T2, recombinant GST-SNAP25197. This is another data set of the same source.
Experiment [11] deals with T3, endogenous SNAP25197 in total cell …. The experiment can be described thus: sandwich ELISA on lysate of BoNT/A-treated N2-42F cells.

Where a chain is given by its changes, count along the chain named. Where “and” joins values, the source holds several entries; their conditions need not be identical. Equal values may be shown once. Read-outs that look alike come from different tables or passages of the source.

T2 sequence (P60880 1-197 limits assumed): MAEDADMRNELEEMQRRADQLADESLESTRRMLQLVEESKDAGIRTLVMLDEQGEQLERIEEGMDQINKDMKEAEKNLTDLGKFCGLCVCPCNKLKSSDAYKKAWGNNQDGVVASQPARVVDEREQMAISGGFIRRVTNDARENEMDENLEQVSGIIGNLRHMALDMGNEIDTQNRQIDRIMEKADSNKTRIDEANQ
T1 sequence (P60880 whole entry): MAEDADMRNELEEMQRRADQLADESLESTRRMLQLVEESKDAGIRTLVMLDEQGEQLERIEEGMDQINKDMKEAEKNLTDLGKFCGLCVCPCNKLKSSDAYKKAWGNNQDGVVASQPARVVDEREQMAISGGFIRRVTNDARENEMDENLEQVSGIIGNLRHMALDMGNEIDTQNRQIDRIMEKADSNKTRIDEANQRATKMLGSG
T3 sequence (P60879 1-197 limits assumed): as the sequence (P60880 1-197 limits assumed) above

B1: B4 IgG (antibody, V domains shown)
VH: EVKLVESGGGLVKPGGSLKLSCAASGFTFSNYGMSWVRQTPEKRLEWVATISSGGSYTYYPDSVKGRFTISRDNAKNTLYLQMSSLRSEDTAMYYCARHEGGGNPYFDYWGQGTTLTVSS
VL: DVLMTQTPLSLPVSLGDQASISCRSSQSLVHSNGNTYLHWYLQKPGQSPKLLIYKVSNRFSGVPDRFSGSGSGTDFTLKISRVEAEDLGVYFCSQNTLVPWTFGGGTKLEIK
notes: also called B4 IgG1; clone 4
In general, koff refers to the rate constant with which the complex falls apart. One may read the Kd as the concentration at which binding is half-saturated. Broadly, the kon is the second-order rate constant of association. As to B1, the koff with recombinant GST-SNAP25FL [1] is ≤ 1e-07 s⁻¹. For the same molecule, in the experiment with recombinant GST-SNAP25FL [2], the Kd is ≤ 0.1 pM. Moreover, the kon in the experiment with recombinant GST-SNAP25FL [3] was determined as 95100 M⁻¹ s⁻¹. The Ratio197/206 in [4] was 0.83. Besides, the binding result in experiment [5] was “binds”.

B2: D3 IgG (antibody, V domains shown)
VH: EVQLEESGGGLVQPGGSLKLSCAASGFTFSNYGMSWVRQTPDKRLELVATINSNGGTTYYPDSVKGRFTISRDNAKNTLYLQMSSLKSEDSAMYYCARDRDAMDYWGQGTSVTVSS
VL: B1 VL with L29I, H31N, N33H, H39E, F92Y, S94F, N96G, T97S, L98H
Consider B2, for which, in [6], the Kd is ≤ 0.9 pM and the off-rate constant (koff) was ≤ 1e-07 s⁻¹. Besides, the Ratio197/206 in experiment [4] worked out at 12.9. In experiment [7], the kon was 111000 M⁻¹ s⁻¹. Moreover, in the experiment with recombinant GST-SNAP25FL [8], the binding result was “no binding (tested: up to 1 µM)”.

B3: D6 IgG (antibody, V domains shown)
VH: EVQLQQSGPELVKPGASVKISCKASGYTFTDYNMHWVKQSHGKSLEWIGYIYPYNGDTGYNQKFKSKATLTVDNSSSTAYMELRSLTSEDSAVYYCVRSGDYWGQGTTLTVSS
VL: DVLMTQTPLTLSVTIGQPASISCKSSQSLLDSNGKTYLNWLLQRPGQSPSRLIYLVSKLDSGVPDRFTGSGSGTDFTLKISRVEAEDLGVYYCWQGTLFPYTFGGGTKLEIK
B3: in the experiment with recombinant GST-SNAP25FL [1], the off-rate constant (koff) is ≤ 1e-07 s⁻¹. Further, the dissociation constant Kd in the experiment with recombinant GST-SNAP25FL [2] is ≤ 2.84 pM. In addition, in the experiment with recombinant GST-SNAP25FL [3], the association rate constant (kon) turned out to be 35200 M⁻¹ s⁻¹. Further, the Ratio197/206 in experiment [4] is 0.02. The binding result in [9] is listed as “no binding”.

B4: B23 IgG (antibody, V domains shown)
VH: EVQLQQSGAELVRPGASVKLSCTASGINIKDYYMHWMKQRPEQDLEWIGWIDPGNGDAEYAPKFQGKATMTADTSSNTAYLQLSSLTSEDTAVYYCNEIAYWGQGTLVTVSA
VL: not shown
notes: also called B23 IgG1
With B4, the Kd in [6] is ≤ 3.27 pM; with recombinant GST-SNAP25FL [2], ≤ 0.1 pM. Besides, the dissociation rate constant (koff) (in [6]; with recombinant GST-SNAP25FL [1]) was ≤ 1e-07 s⁻¹ in each case. Further, the kon with recombinant GST-SNAP25FL [3] came to 95800 M⁻¹ s⁻¹; in [7] it was 25400 M⁻¹ s⁻¹. The Ratio197/206 in experiment [4] was 0.92.

B5: D2 IgG (antibody, V domains shown)
VH: DVKLQESGPGLVKPSQSLSLTCSVTGYSITSGYYWNWIRQFPGNKLEWMGYIRYDGSNNYNPSLKNRISITRDTSKNQFFLKLNSVTTEDTASYYCARDRDSSYYFDYWGQGTALTVSS
VL: DIVMTQSSSYLSVSLGGRVTITCKASDHINNWLAWYQQKPGNAPRLLISDTTSLETGVPSRFSGSGSGKDYTLSITSLQTEDVATYYCQQYWSAPPTFGGGTKLEIK
With B5, the koff with recombinant GST-SNAP25FL [1] is ≤ 1e-07 s⁻¹. Further, the Kd with recombinant GST-SNAP25FL [2] was ≤ 0.61 pM. Besides, the on-rate (kon) with recombinant GST-SNAP25FL [3] came out at 164000 M⁻¹ s⁻¹. Besides, the Ratio197/206 in [4] is 0.03. Further, in [9], the binding result is recorded as “no binding”.

B6: C4 IgG (antibody, V domains shown)
VH: DVKLQESGPGLVKPSQSLSLTCTVTGYSITSDYAWNWIRQFPGNKLEWMGYISYSVGTRYNPSLKSRISITRDTSKNQFFLLLKSVTNEDTATYFCARKGEYGFAYWGQGTLVTVSA
VL: DIVMTQSPASLAVSLGQRATISCRASKSVSTSGYSYMHWYQQKPGQPPKLLIYLASNLESGVPARFSGSGSGTDFTLNIHPVEEEDAATYYCQHSRELPLTFGAGTKLELK
For the molecule B6, in [10], the equilibrium dissociation constant (Kd) was 6530 pM and 17800 pM; the koff was 0.00148 s⁻¹ and 0.0041 s⁻¹; the kon is 230000 M⁻¹ s⁻¹ and 227000 M⁻¹ s⁻¹. For the same molecule, in experiment [6], the equilibrium dissociation constant (Kd) was 1.07 pM and the koff was 1e-07 s⁻¹. Besides, the Ratio197/206 in experiment [4] stood at 919. Also, in [7], the association rate constant (kon) was 92800 M⁻¹ s⁻¹. Further, the binding result with recombinant GST-SNAP25FL [8] is listed as “no binding (tested: up to 1 µM)”.

B7: C16 IgG (antibody, V domains shown)
VH: EVQLQQSGAELARPGASVQMSCKAFGYTFTNYTMHWVRQRPGQGLEWIGFINPSSDYTNYNQKFKDKATLSADKSSSTAYMQLSSLTSEDSAVYYCARRIFYNGRTYAAMDYWGQGTSVTVSS
VL: B6 VL with T31S
notes: also called C16 IgG1
For the molecule B7, in [10], the equilibrium dissociation constant (Kd) is 6440 pM and 9170 pM; the koff was 0.00152 s⁻¹ and 0.00215 s⁻¹; the kon is 236000 M⁻¹ s⁻¹ and 235000 M⁻¹ s⁻¹. Further, in experiment [4], the Ratio197/206 came out at 996. Besides, in experiment [7], the Kd was 1.62 pM, the koff came to 2.57e-06 s⁻¹ and the kon was determined as 1.6e+06 M⁻¹ s⁻¹. Moreover, the binding result with recombinant GST-SNAP25FL [8] is “no binding (tested: up to 1 µM)”.

B8: C24 IgG (antibody, V domains shown)
VH: EVKLVESGGGLVQPKGSLKLSCAASGYTFNTYAMNWVRQAPGKGLEWVARIRSKSNNYTTYYADSVKDRFTISRDDSQSMLYLQINNLKTEDTAMYYCVGQILYYYVGSPAWFAYWGQGTLVTVSA
VL: B6 VL with Y53F, L100W, A104G, L110I
As to B8, the dissociation constant Kd in experiment [10] was 9620 pM and 5250 pM; in experiment [6], 1.15 pM. Also, the dissociation rate constant (koff) is 0.00509 s⁻¹ and 0.00241 s⁻¹ in [10]; 1e-07 s⁻¹ in experiment [6]. In addition, the kon in experiment [10] was 529000 M⁻¹ s⁻¹ and 458000 M⁻¹ s⁻¹; in experiment [7], 86800 M⁻¹ s⁻¹. Besides, in experiment [4], the Ratio197/206 is 973. Further, the binding result in the experiment with recombinant GST-SNAP25FL [8] is reported as “no binding (tested: up to 1 µM)”.

B9: C16 IgG-HRP conjugate (antibody, V domains shown)
VH: B7 VH
VL: B6 VL with T31S
notes: also called C16-HRP; Cg16 IgG-HRP conjugates
On to B9, for which the binding result in experiment [11] is given as “binds”.

B10: C7 IgG (antibody, V domains shown)
VH: QVQLVETGGGLVQPKGSLKLSCAASGFTFNTNAMNWVRQAPGKGLEWVARIRSKSNNYATYYADSVKDRFTISRDDSQSLLYLQMNNLKTEDTAMYYCVYGRSYGGLSYWGQGTLVTVSA
VL: B6 VL with T31S
notes: also called C7 IgG2a
With B10, the kon in [10] is 277000 M⁻¹ s⁻¹ and 257000 M⁻¹ s⁻¹. Also, in [6], the Kd stood at 1.28 pM and the koff came to 1e-07 s⁻¹. In addition, the Ratio197/206 in [4] is 1040. In addition, the on-rate (kon) in experiment [7] is 77800 M⁻¹ s⁻¹. The binding result in the experiment with recombinant GST-SNAP25FL [8] is “no binding (tested: up to 1 µM)”.

B11: C14 IgG (antibody, V domains shown)
VH: B10 VH with Q1E, Q3K, T7S, N56D, Q78P, L80M, S108G
VL: B6 VL with M4L, M37V
In the case of B11, in [6], the Kd was ≤ 1.3 pM and the koff was ≤ 1e-07 s⁻¹. The Ratio197/206 in [4] came out at 953. For the same molecule, the kon in experiment [7] was 76700 M⁻¹ s⁻¹. Moreover, in the experiment with recombinant GST-SNAP25FL [8], the binding result is given as “no binding (tested: up to 1 µM)”.

The record behind these values is EP4796630A2 (Hugel Inc., dated 2026).
